Target: recombinant FVIII (Prospec Bio) (UniProt P00451)
Test: ELISA: vWF-Fc variant coated on the plate, recombinant FVIII at 0-4000 pM, detected with sheep anti-FVIII polyclonal antibody and HRP secondary antibody

Chain of UniProt P00451 (P00451 other isoform, or with tags, fused parts or gaps limits assumed): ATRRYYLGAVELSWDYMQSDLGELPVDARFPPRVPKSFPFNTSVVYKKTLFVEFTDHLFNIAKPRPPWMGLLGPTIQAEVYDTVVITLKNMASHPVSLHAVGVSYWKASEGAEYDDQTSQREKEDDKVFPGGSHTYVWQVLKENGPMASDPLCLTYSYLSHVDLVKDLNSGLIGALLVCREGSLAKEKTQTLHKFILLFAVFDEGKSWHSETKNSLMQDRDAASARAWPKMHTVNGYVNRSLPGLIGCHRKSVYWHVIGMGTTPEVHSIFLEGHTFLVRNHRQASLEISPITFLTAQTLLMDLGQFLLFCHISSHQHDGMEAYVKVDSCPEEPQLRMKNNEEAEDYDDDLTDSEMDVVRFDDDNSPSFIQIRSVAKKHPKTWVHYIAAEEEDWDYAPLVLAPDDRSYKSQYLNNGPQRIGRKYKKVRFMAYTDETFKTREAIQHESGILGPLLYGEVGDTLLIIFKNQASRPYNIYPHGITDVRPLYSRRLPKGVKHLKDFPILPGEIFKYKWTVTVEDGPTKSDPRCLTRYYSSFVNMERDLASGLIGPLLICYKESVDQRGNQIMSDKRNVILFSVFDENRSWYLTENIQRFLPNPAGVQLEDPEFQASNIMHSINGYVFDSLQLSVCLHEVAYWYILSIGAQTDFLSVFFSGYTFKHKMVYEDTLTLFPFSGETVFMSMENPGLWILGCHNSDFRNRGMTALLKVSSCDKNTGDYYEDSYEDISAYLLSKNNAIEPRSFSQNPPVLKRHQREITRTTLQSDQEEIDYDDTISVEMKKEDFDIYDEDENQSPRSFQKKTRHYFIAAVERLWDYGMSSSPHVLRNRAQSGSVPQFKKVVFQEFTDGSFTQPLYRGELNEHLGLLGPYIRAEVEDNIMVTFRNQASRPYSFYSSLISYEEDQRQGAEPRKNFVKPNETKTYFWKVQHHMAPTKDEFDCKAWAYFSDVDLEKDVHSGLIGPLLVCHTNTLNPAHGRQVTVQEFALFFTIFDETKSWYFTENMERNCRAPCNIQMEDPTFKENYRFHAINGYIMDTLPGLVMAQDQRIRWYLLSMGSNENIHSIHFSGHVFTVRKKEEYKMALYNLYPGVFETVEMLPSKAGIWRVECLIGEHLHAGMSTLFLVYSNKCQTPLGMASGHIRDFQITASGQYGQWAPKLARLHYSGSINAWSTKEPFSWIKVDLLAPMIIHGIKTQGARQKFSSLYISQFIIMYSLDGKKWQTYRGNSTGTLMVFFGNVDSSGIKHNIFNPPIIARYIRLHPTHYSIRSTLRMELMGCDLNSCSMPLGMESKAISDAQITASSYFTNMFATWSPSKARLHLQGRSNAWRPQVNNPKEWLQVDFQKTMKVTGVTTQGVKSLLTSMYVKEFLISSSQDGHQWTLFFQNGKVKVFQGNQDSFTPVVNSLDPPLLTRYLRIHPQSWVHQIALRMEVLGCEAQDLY

Pro-D′D3-Fc (Fc fusion) gave a Kd of 0.5 nM.
